Experiments:
HLA-B*51:01 [1] = assay: IEDB peptide-MHC binding, purified MHC/competitive/radioactivity; filed as Kd, often an IC50 or EC50 that approximates it; ≥ and ≤ were set here for values at or beyond the usual limits of such assays
HLA-B*39:01 = assay: IEDB peptide-MHC binding, purified MHC/competitive/fluorescence; filed as Kd, often an IC50 or EC50 that approximates it; ≥ and ≤ were set here for values at or beyond the usual limits of such assays
HLA-B*15:17 = assay: as above
HLA-A*69:01 [2] = assay: as above
HLA-A*02:01 [3] = assay: IEDB peptide-MHC binding, purified MHC/competitive/fluorescence; ≥ and ≤ were set here for values at or beyond the usual limits of such assays
HLA-A*24:02 = assay: as above
HLA-B*07:02 [4] = assay: IEDB peptide-MHC binding, purified MHC/competitive/radioactivity; filed as Kd, often an IC50 or EC50 that approximates it; ≥ and ≤ were set here for values at or beyond the usual limits of such assays
HLA-B*15:01 [5] = assay: IEDB peptide-MHC binding, purified MHC/competitive/fluorescence; filed as Kd, often an IC50 or EC50 that approximates it; ≥ and ≤ were set here for values at or beyond the usual limits of such assays; details: source organism: Zaire ebolavirus
HLA-B*18:01 = assay: as above; details: source organism: Zaire ebolavirus
HLA-B*57:01 = assay: as above; details: source organism: Zaire ebolavirus
HLA-B*46:01 = assay: as above; details: source organism: Zaire ebolavirus
HLA-B*27:03 = assay: as above; details: source organism: Zaire ebolavirus
HLA-B*51:01 [6] = assay: as above; details: source organism: Zaire ebolavirus
HLA-A*02:01 [7] = assay: IEDB peptide-MHC binding, purified MHC/direct/fluorescence; filed as Kd, often an IC50 or EC50 that approximates it; ≥ and ≤ were set here for values at or beyond the usual limits of such assays
HLA-A*24:03 = assay: as above; details: source organism: Zaire ebolavirus
HLA-A*03:01 = assay: as above
HLA-B*53:01 = assay: IEDB peptide-MHC binding, purified MHC/competitive/radioactivity; filed as Kd, often an IC50 or EC50 that approximates it; ≥ and ≤ were set here for values at or beyond the usual limits of such assays; details: source organism: Dengue virus 3 Martinique/1243/1999
HLA-A*26:01 = assay: IEDB peptide-MHC binding, purified MHC/direct/fluorescence; filed as Kd, often an IC50 or EC50 that approximates it; ≥ and ≤ were set here for values at or beyond the usual limits of such assays; details: source organism: Brucella abortus
HLA-B*15:01 [8] = assay: as above; details: source organism: Brucella suis
HLA-B*08:01 = assay: as above; details: source organism: Brucella abortus
HLA-B*40:01 = assay: as above; details: source organism: Brucella suis
HLA-A*69:01 [9] = assay: as above; details: source organism: Brucella abortus
HLA-A*11:01 = assay: as above; details: source organism: Brucella abortus
HLA-B*07:02 [10] = assay: as above; details: source organism: Brucella abortus
HLA-A*31:01 = assay: as above; details: source organism: Brucella abortus
HLA-B*44:02 = assay: as above; details: source organism: Brucella abortus
HLA-B*27:05 = assay: as above; details: source organism: Brucella abortus
HLA-B*58:01 = assay: as above; details: source organism: Brucella abortus
HLA-A*01:01 = assay: as above; details: source organism: Brucella abortus
[11] = source organism: Sudan ebolavirus
[12] = source organism: Zaire ebolavirus
[13] = source organism: Dengue virus 3 Martinique/1243/1999
[14] = source organism: Brucella abortus

For PPFGDSYIV, the Kd (HLA-B*51:01 [1]; source organism: Dengue virus 4 Philippines/H241/1956) was no less than 23.1 µM.

Work on DPRRCLKPVI yielded a Kd (HLA-B*51:01 [1]; source organism: Dengue virus 1 Brazil/97-11/1997) of 10.5 µM.

Sequence GPSPSHKSV has a Kd (HLA-B*39:01; source organism: Homo sapiens) of no less than 20 µM, a Kd (HLA-B*15:17; source organism: Homo sapiens) of no less than 20 µM and a Kd (HLA-A*69:01 [2]; source organism: Homo sapiens) of no less than 20 µM.

Work on QHSTTLFKI yielded an IC50 (HLA-A*02:01 [3]; [11]) of no less than 80 µM and an IC50 (HLA-A*24:02; [11]) of 2.12 µM.

CLHHAYQGD was tested, and the IC50 (HLA-A*02:01 [3]; [12]) was no less than 119 µM and the IC50 (HLA-A*24:02; [12]) was no less than 92 µM.

RPTPKGTVMD was tested, and the Kd (HLA-B*07:02 [4]; source organism: Dengue virus 3 Singapore/8120/1995) was 0.061 µM.

With KLINTLFHA the Kd (HLA-B*39:01; [12]) was no less than 20 µM, the Kd (HLA-B*15:17; [12]) was no less than 20 µM and the Kd (HLA-B*15:01 [5]) was no less than 20 µM. The Kd (HLA-B*18:01) was no less than 20 µM, the Kd (HLA-B*57:01) was no less than 20 µM and the Kd (HLA-B*46:01) was no less than 20 µM. For the same sequence, the Kd (HLA-B*27:03) was no less than 20 µM, the Kd (HLA-A*69:01 [2]; [12]) was no less than 20 µM and the Kd (HLA-B*51:01 [6]) was no less than 20 µM. It also gave a Kd (HLA-A*02:01 [7]; source organism: Sudan ebolavirus - Maleo (1979)) of 0.0047 µM, a Kd (HLA-A*24:03) of no less than 20 µM and a Kd (HLA-A*03:01; [12]) of no less than 20 µM.

VPMSTYGWNI was tested, and the Kd (HLA-B*07:02 [4]; [13]) was 0.0605 µM, the Kd (HLA-B*51:01 [1]; [13]) was 0.0917 µM and the Kd (HLA-B*53:01) was 0.0445 µM.

For KGRVGRVNP, the IC50 (HLA-A*24:02; source organism: Variola virus) was 9.76 µM.

In the case of AENGWGFYF, the Kd (HLA-A*26:01) is reported as no less than 20 µM, the Kd (HLA-B*15:01 [8]) is reported as 0.285 µM and the Kd (HLA-A*02:01 [7]; [14]) is reported as no less than 20 µM. It also gave a Kd (HLA-B*08:01) of no less than 20 µM, a Kd (HLA-B*40:01) of 0.0289 µM and a Kd (HLA-A*69:01 [9]) of no less than 20 µM. For the same sequence, the Kd (HLA-A*11:01) was no less than 20 µM, the Kd (HLA-B*07:02 [10]) was no less than 20 µM and the Kd (HLA-A*31:01) was no less than 20 µM. It also gave a Kd (HLA-B*44:02) of 6.42 µM, a Kd (HLA-B*27:05) of no less than 20 µM and a Kd (HLA-A*03:01; [14]) of no less than 20 µM. For the same sequence, the Kd (HLA-B*58:01) was no less than 20 µM and the Kd (HLA-A*01:01) was no less than 20 µM.

— the Immune Epitope Database (IEDB)
